Data on one protein can be found in ChEMBL document CHEMBL1140886, “Development of an optimized activatable MMP-14 targeted SPECT imaging probe” (Bioorg Med Chem, 2009).

Usually kcat/Km stands for the turnover number divided by the Michaelis constant.

Substrate in this data set: CC[C@H](C)[C@H](NC(=O)[C@H](CCCNC(=N)N)NC(=O)CNC(=O)[C@@H](N)CO)C(=O)NCC(=O)N[C@@H](Cc1ccccc1)C(=O)N[C@@H](CC(C)C)C(=O)N[C@@H](CCCNC(=N)N)C(=O)N[C@H](C(=O)N[C@@H](C)C(=O)O)[C@@H](C)O
The data set can be described thus: Ratio of kcat/km for MMP9 assessed as drug cleavage.

B1: Matrix metalloproteinase-9 (Homo sapiens), P14780 (protein)
chain: MSLWQPLVLVLLVLGCCFAAPRQRQSTLVLFPGDLRTNLTDRQLAEEYLYRYGYTRVAEMRGESKSLGPALLLLQKQLSLPETGELDSATLKAMRTPRCGVPDLGRFQTFEGDLKWHHHNITYWIQNYSEDLPRAVIDDAFARAFALWSAVTPLTFTRVYSRDADIVIQFGVAEHGDGYPFDGKDGLLAHAFPPGPGIQGDAHFDDDELWSLGKGVVVPTRFGNADGAACHFPFIFEGRSYSACTTDGRSDGLPWCSTTANYDTDDRFGFCPSERLYTQDGNADGKPCQFPFIFQGQSYSACTTDGRSDGYRWCATTANYDRDKLFGFCPTRADSTVMGGNSAGELCVFPFTFLGKEYSTCTSEGRGDGRLWCATTSNFDSDKKWGFCPDQGYSLFLVAAHEFGHALGLDHSSVPEALMYPMYRFTEGPPLHKDDVNGIRHLYGPRPEPEPRPPTTTTPQPTAPPTVCPTGPPTVHPSERPTAGPTGPPSAGPTGPPTAGPSTATTVPLSPVDDACNVNIFDAIAEIGNQLYLFKDGKYWRFSEGRGSRPQGPFLIADKWPALPRKLDSVFEERLSKKLFFFSGRQVWVYTGASVLGPRRLDKLGLGADVAQVTGALRSGRGKMLLFSGRRLWRFDVKAQMVDPRSASEVDRMFPGVPLDTHDVFQYREKAYFCQDRFYWRVSSRSELNQVDQVGYVTYDILQCPED
Take B1: the kcat/Km amounted to 20000 M⁻¹ s⁻¹.
